US20240293459A1 (published 2024)

Assays:
Experiment in all cases: multimer staining
[1] = biological target: T1, SARS-CoV-2 NSP13 helicase; peptide NSP13-242 peptide on HLA-A*02:01 (human)
T1 peptide: TLVPQEHYV

[2] = biological target: T2, SARS-CoV-2 NSP13 helicase; peptide NSP13-400 peptide on HLA-A*24:02 (human)
T2 peptide: VYIGDPAQL

[3] = biological target: SARS-CoV-2 NSP13 helicase; peptide NSP13-448 peptide on HLA-A*01:01 (human)

B1: NSP13-242 TCR (TCR, V domains shown)
Valpha: AQTVTQSQPEMSVQEAETVTLSCTYDTSENNYYLFWYKQPPSRQMILVIRQEAYKQQNATENRFSVNFQKAAKSFSLKISDSQLGDTAMYFCAFMNSNNARLMFGDGTQLVVKP
Vbeta: DAGITQSPRYKITETGRQVTLMCHQTWSHSYMFWYRQDLGHGLRLIYYSAAADITDKGEVPDGYVVSRSKTENFPLTLESATRSQTSVYFCASSPGSVPGGYTFGSGTRLTVV
Does B1 bind [1]?
Result: recognises

B2: NSP13-400 TCR (TCR, V domains shown)
Valpha: RKEVEQDPGPFNVPEGATVAFNCTYSNSASQSFFWYRQDCRKEPKLLMSVYSSGNEDGRFTAQLNRASQYISLLIRDSKLSDSATYLCVVKDSWGKLQFGAGTQVVVTP
Vbeta: DARVTQTPRHKVTEMGQEVTMRCQPILGHNTVFWYRQTMMQGLELLAYFRNRAPLDDSGMPKDRFSAEMPDATLATLKIQPSEPRDSAVYFCASGPSGGWNTIYFGEGSWLTVV
Does B2 bind [2]?
Result: recognises

B3: NSP13-448 TCR (TCR, V domains shown)
Valpha: AQSVTQLGSHVSVSEGALVLLRCNYSSSVPPYLFWYVQYPNQGLQLLLKYTSAATLVKGINGFEAEFKKSETSFHLTKPSAHMSDAAEYFCAVSNSGGGADGLTFGKGTHLIIQP
Vbeta: DGGITQSPKYLFRKEGQNVTLSCEQNLNHDAMYWYRQDPGQGLRLIYYSQIVNDFQKGDIAEGYSVSREKKESFPLTVTSAQKNPTAFYLCASSIMAGGHGELFFGEGSRLTVL
Does B3 bind [3]?
Result: recognises
